Data on seven molecules can be found in PMC7895427, “A stapled peptide mimetic of the CtIP tetramerization motif interferes with double-strand break repair and replication fork protection” (Science Advances, 2021).

Changes are numbered by the printed parent chain. Names and notes keep the numbering of the source. Positions of bridges follow the written chain, without caps; N, C: chain ends. Non-standard residues stand in square brackets, D forms with d. *: point of attachment. FITC = O=C1OC2(c3ccc(O)cc3Oc3cc(O)ccc32)c2ccc(NC(=S)*)cc21; R8 = C=CCCCCCC[C@@](C)(N)C(=O)O; S5 = C=CCCC[C@](C)(N)C(=O)O

B1: CtIP-NTD^(18–145, L27E) (domain or fragment, human, UniProt Q99708 18-145, looked up)
chain: SDFKDLWTKEKECHDREVQGLQVKVTKLKQERILDAQRLEEFFTKNQQLREQQKVLHETIKVLEDRLRAGLCDRCAVTEEHMRKKQQEFENIRQQNLKLITELMNERNTLQEENKKLSEQLQQKIEND
notes: not shown: His6, N-terminal, cleaved; MBP, N-terminal, cleaved
B2: CtIP-NTD^18–145 (domain or fragment, human, UniProt Q99708 18-145, looked up)
chain: B1 chain with E10L
notes: as for B1
B3: full-length recombinant CtIP wild type (natural protein, human, UniProt Q99708 1-897, looked up)
chain: MNISGSSCGSPNSADTSSDFKDLWTKLKECHDREVQGLQVKVTKLKQERILDAQRLEEFFTKNQQLREQQKVLHETIKVLEDRLRAGLCDRCAVTEEHMRKKQQEFENIRQQNLKLITELMNERNTLQEENKKLSEQLQQKIENDQQHQAAELECEEDVIPDSPITAFSFSGVNRLRRKENPHVRYIEQTHTKLEHSVCANEMRKVSKSSTHPQHNPNENEILVADTYDQSQSPMAKAHGTSSYTPDKSSFNLATVVAETLGLGVQEESETQGPMSPLGDELYHCLEGNHKKQPFEESTRNTEDSLRFSDSTSKTPPQEELPTRVSSPVFGATSSIKSGLDLNTSLSPSLLQPGKKKHLKTLPFSNTCISRLEKTRSKSEDSALFTHHSLGSEVNKIIIQSSNKQILINKNISESLGEQNRTEYGKDSNTDKHLEPLKSLGGRTSKRKKTEEESEHEVSCPQASFDKENAFPFPMDNQFSMNGDCVMDKPLDLSDRFSAIQRQEKSQGSETSKNKFRQVTLYEALKTIPKGFSSSRKASDGNCTLPKDSPGEPCSQECIILQPLNKCSPDNKPSLQIKEENAVFKIPLRPRESLETENVLDDIKSAGSHEPIKIQTRSDHGGCELASVLQLNPCRTGKIKSLQNNQDVSFENIQWSIDPGADLSQYKMDVTVIDTKDGSQSKLGGETVDMDCTLVSETVLLKMKKQEQKGEKSSNEERKMNDSLEDMFDRTTHEEYESCLADSFSQAADEEEELSTATKKLHTHGDKQDKVKQKAFVEPYFKGDERETSLQNFPHIEVVRKKEERRKLLGHTCKECEIYYADMPAEEREKKLASCSRHRFRYIPPNTPENFWEVGFPSTQTCMERGYIKEDLDPCPRPKRRQPYNAIFSPKGKEQKT
notes: human CtIP, full length (amino acids 1 to 897); also called CtIP-wt
B4: full-length recombinant CtIP-L27E (natural protein, human, UniProt Q99708 1-897, looked up)
chain: B3 chain with L27E
notes: human CtIP, full length (amino acids 1 to 897), with L27E; L27E was introduced by site-directed mutagenesis of the 3xFLAG-CtIP-wt expression vector
B5: CtIP-NTD^32–145 (domain or fragment, human, UniProt Q99708 32-145, looked up)
chain: DREVQGLQVKVTKLKQERILDAQRLEEFFTKNQQLREQQKVLHETIKVLEDRLRAGLCDRCAVTEEHMRKKQQEFENIRQQNLKLITELMNERNTLQEENKKLSEQLQQKIEND
notes: also called N-terminal coiled-coil domain; not shown: His6, N-terminal, cleaved; MBP, N-terminal, cleaved

Series [1] concerns the molecule itself. Put plainly: cross-linking; 1 or 2 μg recombinant protein with or without peptide in PBS, 30 min at RT; 100 μM disuccinimidyl suberate, 30 min at RT; SDS-PAGE and staining.
Series [2] deals with the molecule itself. The series is described as follows: cell-based or functional assay.
Series [3] concerns the molecule itself. The series is described as follows: SEC-MALS; full-length CtIP 10 μM with 0, 20 or 250 μM peptide; 1 hour on ice, then 30 min at RT; Superose 6 10/300 in 20 mM tris (pH 8.0), 200 mM NaCl, 0.5 mM TCEP. Background: In gel filtration, larger molecules generally elute earlier.
The target in the series “CtIP-NTD^18–145” is B2. Put plainly: fluorescence polarisation; FITC-labeled peptide (1 mg/ml stock diluted 1:10,000) mixed with serially diluted CtIP-NTD; 20 mM tris (pH 8.0), 150 mM NaCl; 10 min at RT; nonlinear regression with Hill slope. To be noted: both partners purified.

In general, stoichiometry N refers to a count of units in the complex or per binding partner. B1: the “stoichiometry N” value in series [1] was determined as 2.
As to B2, in series [1], the “stoichiometry N” value came to 4.
For the molecule B3, in series [2], the “HR frequency (percentage of GFP-positive U2OS EGFP-HR reporter cells after I-SceI) with 10 μM SP^18–28 for 24 hours” value is roughly 3 fold decrease. Further, the “stoichiometry N” value in series [3] is 4.
Take B4: the “stoichiometry N” value in series [3] turned out to be 2.
As for {FITC}-S[R8]FKDLWT[S5]LKECH-NH2 (staple 2-9) [FITC-labeled SP^18–31 (hydrocarbon-stapled peptide spanning the entire CtIP tetramerization motif)], in the series with CtIP-NTD^18–145, the “fold higher Kd than that of SP^18–28 on the same target” value is roughly 100 fold.
Broadly, the Kd is the constant that tells how readily two partners part at equilibrium. {FITC}-S[R8]FKDLWT[S5]LK-NH2 (staple 2-9) [FITC-labeled SP^18–28 (hydrocarbon-stapled peptide of CtIP residues 18 to 28)] had a Kd with CtIP-NTD^18–145 of 209 nM.
For B5, the “stoichiometry N” value in series [1] stood at 2.
